± gives the half width of the 95% confidence interval.

A short description of data set [1]: folding stability dG unfold from trypsin proteolysis; higher = more stable. The gist of the method: (§1)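 Sequencing followed digestion of designed mini-proteins with trypsin and chymotrypsin, each at 11 concentrations in threefold dilutions together with a no-protease condition. The mini-proteins were under 80 residues, had no cysteine, sat in a PA-tagged cDNA display construct, and were kept only if AlphaFold2 dimer inter-PAE was above 15. From the counts, Bayesian fitting gave K50, and unfolding free energy was derived against a sequence-predicted unfolded-state K50 and a shared folded-state K50, per protease or combined.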

Data set [2] in a line: folding stability dG unfold from chymotrypsin proteolysis; higher = more stable. In outline:
as §1

The nature of data set [3]: folding stability dG unfold (combined trypsin and chymotrypsin); higher = more stable. The gist of the method:
as §1

For the sequence “SAGSLKPGDLLYVRIYVYNPDGELLGEIDELVETEEEAERRLRELAREIEERLGRNVRVLAEIYRYPRLSAG [r5_232_TrMRF]”, the “folding stability dG unfold” value in data set [1] turned out to be 3.36 ± 0.088 kcal/mol; in data set [2] it was 4.559 ± 0.024 kcal/mol; in data set [3], 4.19 ± 0.1 kcal/mol.

As for “SAGSLKPSDLVLLRSRPVRVGGKPVVLVDLVVFHPDGSASRAVLTLPSGVGPPVVGVVPVPALVRLIASSAG [r5_831_TrMRF]”, the “folding stability dG unfold” value in data set [1] was 1.53 ± 0.047 kcal/mol; in data set [2] it was 2.14 ± 0.084 kcal/mol; in data set [3] it was 1.95 ± 0.12 kcal/mol.

On to “SAGSMHLVEFTGTEEVVDEFLASLPPEVVVERERYPDRWLVRLPPDVPARTITVPTPDGRPVTFTLRLESAG [r5_123_JUSTAS]”, for which the “folding stability dG unfold” value in data set [1] was -0.851 ± 0.41 kcal/mol; in data set [2], -0.346 ± 0.31 kcal/mol; in data set [3], -0.487 ± 0.21 kcal/mol.

On to “SAGSMKTVVRVEKEVDPSTGKITITEEIEDKVYTTTMDLNPETGDATSTVTYPDSTIGTTTVPISSISSSAG [r5_415_JUSTAS]”, for which the “folding stability dG unfold” value in data set [1] was -0.155 ± 0.024 kcal/mol; in data set [2], 0.706 ± 0.052 kcal/mol; in data set [3], 0.432 ± 0.067 kcal/mol.

Turning to “SAGSMLFDPNGVLREVSVTPDPSTGTTVTTTLVQWPVDDGNGNSVLERITTTTSPSGTVTTSTEVRPAPSAG [r5_303_JUSTAS]”, the figures for the “folding stability dG unfold” value in data set [1], in data set [2] and in data set [3] were 0.182 ± 0.027 kcal/mol, 0.0881 ± 0.034 kcal/mol and 0.138 ± 0.085 kcal/mol, respectively.

As to “SAGSMPPSTTTSEEVTVGGKKVKRTTTVYRAPNGTPSVTSTYTLGETPGVEDPLSGKALTPEERAAAAASAG [r5_138_JUSTAS]”, the “folding stability dG unfold” value in data set [1] is 0.417 ± 0.21 kcal/mol; in data set [2], 0.564 ± 0.28 kcal/mol; in data set [3], 0.668 ± 0.16 kcal/mol.

As to “SAGSMSSVKKVKITTTSYDPTNGAKKETSYDVTVTTTTYPATGEITRTIYFTSTGKWKVEHLPPGAPLASAG [r14_587_JUSTAS]”, the “folding stability dG unfold” value was 1.48 ± 0.066 kcal/mol in data set [1], 2.15 ± 0.12 kcal/mol in data set [2] and 1.97 ± 0.14 kcal/mol in data set [3].

For “SAGSNKKITAEELAKLLEEKFKEKFPDAEIKVHAHAEPRPDDKLIIHVHFEIYRKKPKIGEFDVVIEFESAG [r5_696_TrMRF]”, the entries for the “folding stability dG unfold” value in data set [1], in data set [2] and in data set [3] were 1.55 ± 0.085 kcal/mol, 2.76 ± 0.043 kcal/mol and 2.38 ± 0.13 kcal/mol, respectively.

For “SAGSPETVTLPLTVTLPPGVPLSQIEAVLKKNGFTELEITASPTPDGTLRYAIDATMPVSVVEKLIKALSAG [r5_376_JUSTAS]”, the “folding stability dG unfold” value in data set [1] was determined as 1.8 ± 0.035 kcal/mol; in data set [2], 2.24 ± 0.042 kcal/mol; in data set [3], 2.08 ± 0.059 kcal/mol.

Take “SAGSPLYEVKSEEVLPGPGGEPMRVTVVELPGGEILTFVESPDGLLEIRYIPAETGKFEKTEKVPRDLLSAG [r5_750_JUSTAS]”: the “folding stability dG unfold” value is 0.445 ± 0.06 kcal/mol in data set [1], 0.802 ± 0.087 kcal/mol in data set [2] and 0.618 ± 0.15 kcal/mol in data set [3].

For the sequence “SAGSPPDDVREEETEEVVPSPDGSLTVTRTPVVRRPGEEEEVRTETTVYFPPSDETLTSESLTRFPGASAGG [r19_387_JUSTAS]”, the “folding stability dG unfold” value in data set [1] amounted to 0.356 ± 0.049 kcal/mol; in data set [2], 0.895 ± 0.051 kcal/mol; in data set [3], 0.695 ± 0.095 kcal/mol.

In the case of “SAGSSPEEIAERLREEAERTEKLPDGSEVRVSVSVDVEVLPNGTVRLTIPRSYPETGVVTTETVTIPVASAG [r5_397_JUSTAS]”, the results for the “folding stability dG unfold” value in data set [1], in data set [2] and in data set [3] were 0.0542 ± 0.11 kcal/mol, -0.579 ± 0.33 kcal/mol and -0.194 ± 0.16 kcal/mol, respectively.

“SAGSSSSLPNVLVVTLYLPDAPLPIVLPVDTPEDVELAKERVKEIEKELEELGLPVNVEFKYYPPGFPVSAG [r5_823_TrMRF]”: the “folding stability dG unfold” value in data set [1] is 0.497 ± 0.065 kcal/mol; in data set [2], -1.16 ± 0.84 kcal/mol; in data set [3], 0.194 ± 0.18 kcal/mol.

As to “SAGSSSVTLFPEYTITTTTLPDGSRSVTINFTNPEEAKKLFEENPEIKELIEKFKKEGWDVKINAKNPSSAG [r14_873_JUSTAS]”, the “folding stability dG unfold” value stood at 2.98 ± 0.21 kcal/mol in data set [1], 3.95 ± 0.17 kcal/mol in data set [2] and 3.67 ± 0.22 kcal/mol in data set [3].

In the case of “SAGSSTTETFTHPDGSVVTVTEEELPDGSYRVTSVSYEATPDGTVSALLRKPDGTIITVDSLEELFALESAG [r5_618_JUSTAS]”, the “folding stability dG unfold” value is 0.965 ± 0.025 kcal/mol in data set [1], 1.51 ± 0.076 kcal/mol in data set [2] and 1.34 ± 0.083 kcal/mol in data set [3].

As for “SAGSVEIKESSLPDSTIITITIPYTSPEEAPERIERLLKELGLSENVQVIEVKYEPSPPVVTVKIKIESAGG [r19_186_JUSTAS]”, the “folding stability dG unfold” value in data set [1] is 2.41 ± 0.077 kcal/mol; in data set [2], 3.21 ± 0.09 kcal/mol; in data set [3], 2.99 ± 0.12 kcal/mol.

On to “SAGSVETFEDPEVGRVVIVPLPGGEVLTIELPPDSITMTLTSPKGGESVTITKKMKPGEEEELIKELASSAG [r5_820_JUSTAS]”, for which the “folding stability dG unfold” value in data set [1] is -0.521 ± 0.47 kcal/mol; in data set [2], -0.603 ± 0.45 kcal/mol; in data set [3], -0.358 ± 0.3 kcal/mol.

“SAGSVEVSVSGNEIHITAPEGISLEELIELIKKLFPGADIGEVSVEKLPDGRYVATFKAGFKPPSPDELSAG [r5_110_TrMRF]”: the “folding stability dG unfold” value in data set [1] worked out at 4.41 ± 0.25 kcal/mol; in data set [2] it was 4.29 ± 0.14 kcal/mol; in data set [3] it was 4.34 ± 0.12 kcal/mol.
